{
  "source": "paper PMC3045603",
  "key": {"[1]": {"target": "wild-type yeast ScNep1 with an N-terminal hexahistidine tag (S. cerevisiae) (UniProt Q06287)", "experiment": "SEC"}, "[2]": {"target": "yeast ScNep1^D90G (Bowen-Conradi syndrome mutation) with an N-terminal hexahistidine tag (S. cerevisiae) (UniProt Q06287)", "experiment": "SEC"}},
  "data": [
    {"substance": "wild-type yeast ScNep1 with an N-terminal hexahistidine tag (from UniProt Q06287 1-252) (enzyme)", "values": [
      {"measurement": "Kd", "setting": "[1]", "result": 134, "unit": "µM"}
    ]},
    {"substance": "yeast ScNep1^D90G (Bowen-Conradi syndrome mutation) with an N-terminal hexahistidine tag (from UniProt Q06287 1-252) (enzyme)", "values": [
      {"measurement": "Kd", "setting": "[2]", "result": 5.8, "unit": "µM"},
      {"measurement": "stoichiometry N", "setting": "[2]", "result": 2}
    ]}
  ]
}
